Reference: patent publication US11015206B2, “Compositions and methods comprising sequences having hydroxyphenylpyruvate dioxygenase (HPPD) activity” (PIONEER HI-BRED INTERNATIONAL, INC., priority 2014, dated 2021)

What was measured:
Assay type in all cases: biochemical, Z. mays
[1] = system: 4-hydroxyphenylpyruvate dioxygenase (HPPD); experiment: ON rate ratio: HPPD reaction rate with vs without inhibitor in the 70 to 90 second interval; settings: Table 5; tembotrione
Summary of the method: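 Time courses of HPPD reactions, 60 or 120 nM enzyme with 100 μM HPP substrate, run with and without 4 μM inhibitor (e.g. mesotrione, tembotrione). Value is the rate with inhibitor over rate without, taken over 70–90 s; higher ratio reflects slower kON.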

[2] = system: 4-hydroxyphenylpyruvate dioxygenase (HPPD); experiment: Insensitivity parameter (ON × OFF) and trait fitness (ON × OFF × kcat/KM or × kcat); settings: for ON × OFF × kcat, Value / ON × OFF × kcat, Fold vs wt / ON × OFF, fold vs wt / ON × OFF (parameters with tembotrione): Table 5, tembotrione; for ON × OFF × kcat, Fold vs wt / ON × OFF, fold vs wt: fold vs maize wild type HPPD; for ON × OFF (parameters with tembotrione): insensitivity parameter
Summary of the method: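 Calculated, not measured directly: ON rate ratio × OFF rate ratio gives an insensitivity parameter serving as a KD surrogate.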

[3] = system: 4-hydroxyphenylpyruvate dioxygenase (HPPD); experiment: Estimate of kcat from initial rate at saturating hydroxyphenylpyruvate without inhibitor (ON rate ratio assay); settings: Table 5; single substitutions in Round 7 variant 9070 (SEQ ID NO:2); estimate from initial rate at saturating hydroxyphenylpyruvate without inhibitor
Summary of the method: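 Reactions used 60 or 120 nM HPPD and saturating 100 μM hydroxyphenylpyruvate without inhibitor. kcat was estimated from the initial rate at the known enzyme concentration.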

[4] = system: 4-hydroxyphenylpyruvate dioxygenase (HPPD); experiment: OFF rate ratio: release of inhibitor from pre-formed enzyme-inhibitor complex; settings: Table 5; tembotrione
Summary of the method: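 HPPD (7.2 μM) pre-incubated 1 h at RT with inhibitor (8 μM), then diluted into 25 mM Hepes pH 7, 2 mM ascorbate, 10 μM FeSO4, 100 μM HPP, 50 nM HGD; A320 followed 12 min. Ratio = steady-state rate with inhibitor over initial rate of inhibitor-free enzyme.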

[5] = system: 4-hydroxyphenylpyruvate dioxygenase (HPPD); experiment: HPPD activity coupled assay with HGD; substrate saturation kinetic parameters (kcat, KM); settings: Table 6; for kcat: single substitutions in SEQ ID NO:2
Description: Wild type and shuffled variant genes were cloned into pVER7062, a modified version of pET24a(+)(Novagen), which places six histidine residues at the N-terminus of the expressed protein. Vectors were electroporated into E. coli host strain BL21(DE3). Cells were grown at 30 C in rich medium such as 2×YT containing the selection antibiotic, kanamycin. At a density of about 0.6 OD600, IPTG was added to 0.2 mM, the temperature was reduced to 16 C and growth continued for another 24 hrs. Cells were harvested by centrifugation and stored at −80 C. Cell pellets were lysed in BPER (Pierce) protein extraction reagent containing 0.2 mg/ml lysozyme, 1 mM dithiothreitol, protease inhibitor cocktail (Sigma, bacterial cocktail) and endonuclease. Insoluble cellular debris was removed by centrifugation. HPPD protein was purified from the soluble protein solution by affinity chromatography on the nickel form of nitrilotriacetic acid (Ni-NTA) resin (Qiagen). Protein concentrations were determined by the Bradford method, as supplied by Bio-Rad.
HPPD catalyzes the conversion of 4-hydroxyphenylpyruvate (HPP) to homogentisate (FIG. 17). […] However, the product of the ensuing reaction in tyrosine metabolism, maleylacetoacetate, absorbs strongly at 320 nm. Furthermore, the enzyme catalyzing that reaction is also a dioxygenase having similar mechanism and buffer requirements as HPPD, making homogentisate dioxygenase (HGD) an ideal partner in a coupled assay, as shown.
The HDG gene from Pseudomonas aeruginosa (Amaya (2004) Arch Biochem Biophys 421, 135-142) was cloned into pVER7062 and electroporated into E. coli strain BL21(DE3). The enzyme was produced by methods similar to those described for HPPD. The purified enzyme has a KM for homogentisate of 23 μM and a kcat of 100/sec, properties highly suited for instantly converting the homogentisate produced by HPPD to maleylacetoacetate.
HPPD activity was measured by placing an aliquot (e.g., 6 μl) of the substrate HPP at 50-fold the desired final concentration into the wells of a low UV-absorbing assay plate. Reactions were started by adding a mixture (e.g., 294 μl) containing 25 mM Hepes, pH 7, 2 mM ascorbate, 10 μM FeSO4, 1 to 100 μM HPP, 50 nM HGD and 5 to 240 nM HPPD. Absorbance at 320 nm was monitored continuously in a plate-reading spectrophotometer (Spectramax, Molecular Devices).
The catalytic performance of wild-type HPPD and variants generated by shuffling was assessed by determining the substrate saturation kinetic parameters. The Michaelis-Menten kinetics protocol of the Spectramax software was customized for HPP concentrations ranging from 3.33 μM to 100 μM. Reaction rates were measured as described above for each concentration of HPP. The software returns values of KM and Vmax using the Lineweaver-Burke transformation of the Michaelis-Menten equation.

[6] = DKN (diketonitrile form of isoxaflutole)
[7] = DKN (isoxaflutole diketonitrile)

| Molecule | ON ratio (parameters with tembotrione) [1] | Insensitivity parameter, ON × OFF [2, 6] | ON × OFF × kcat/km fold vs Round 7, variant 9070 [2, 7] | Insensitivity parameter, ON × OFF ([2]; Mesotrione, Table 6) | ON × OFF × kcat/km fold vs Round 7, variant 9070 ([2]; Sulco (sulcotrione)) | Insensitivity parameter, ON × OFF ([2]; Sulcotrione) | ON × OFF × kcat, Value [2] | ON × OFF × kcat, Fold vs wt [2] | ON × OFF, fold vs wt [2] | ON × OFF (parameters with tembotrione) [2] | Insensitivity parameter, ON × OFF ([2]; Tembotrione) | ON × OFF × kcat/km fold vs Round 7, variant 9070 ([2]; Topra (topramezone)) | Insensitivity parameter, ON × OFF ([2]; Topramezon) | ON × OFF × kcat/km fold vs Round 7, variant 9070 ([2]; meso (mesotrione)) | ON × OFF × kcat/km fold vs Round 7, variant 9070 ([2]; tembo (tembotrione)) | kcat [3] | OFF ratio (parameters with tembotrione) [4] | Km [5] | kcat [5] |
| --- | --- | --- | --- | --- | --- | --- | --- | --- | --- | --- | --- | --- | --- | --- | --- | --- | --- | --- | --- |
| 356K: single substitution E356K in SEQ ID NO:2 (protein, Zea mays variant form created by artificial means.) MGPTPTATAAGAAVAAASAAEQAAFRLVGHRNFVRFNPRSDRFQTLAFHHVELWCADAASAAGRFSFALGVPLAARSDLSTGNSAHASLLLRSGSLSLLFTAPYAHGADAATAALPSFSAAAARRFAADHGLAVRAVALRVADAEDAFRASVAAGARPAFGPVDLGRGFRLAEVELYGDVVLRYVSYPDGAAGEPFLPGFEGVASPGAADYGLSRFDHIVGNVPELAPAAAYMAGFTGFHEFAEFTTEDVGTTESGLNSMALANNSENVLLPLNEPVHGTKRRSQIQTFLDHHGGPGVQHIALASDDVLRTLREMRARSAMGGFEFLPPPLSDYYDGVRRCAGDVLTEAQINECQKLGVMVDRDDQGVLLQIFTKPVGDRPTFFLEIIQRIGCMEKDEKGQEYQKGGCGGFGKGNFGQLFKSIEDYEKSLEAKQAAAAATAQGS | 0.75 | 0.25 | 1.1 | 0.48 | 1.1 | 0.55 | 6.18 | 5.78 | 31.2 | 0.16 | 0.18 | 0.9 | 0.23 | 1.2 | 1.2 | 0.647 s⁻¹ | 0.21 | 2.6 µM | 1.1 s⁻¹ |
| 340K: single substitution R340K in SEQ ID NO:2 (protein, Zea mays variant form created by artificial means.) MGPTPTATAAGAAVAAASAAEQAAFRLVGHRNFVRFNPRSDRFQTLAFHHVELWCADAASAAGRFSFALGVPLAARSDLSTGNSAHASLLLRSGSLSLLFTAPYAHGADAATAALPSFSAAAARRFAADHGLAVRAVALRVADAEDAFRASVAAGARPAFGPVDLGRGFRLAEVELYGDVVLRYVSYPDGAAGEPFLPGFEGVASPGAADYGLSRFDHIVGNVPELAPAAAYMAGFTGFHEFAEFTTEDVGTTESGLNSMALANNSENVLLPLNEPVHGTKRRSQIQTFLDHHGGPGVQHIALASDDVLRTLREMRARSAMGGFEFLPPPLSDYYDGVRKCAGDVLTEAQINECQELGVMVDRDDQGVLLQIFTKPVGDRPTFFLEIIQRIGCMEKDEKGQEYQKGGCGGFGKGNFGQLFKSIEDYEKSLEAKQAAAAATAQGS | 0.75 | 0.23 | 2.2 | 0.44 | 1.3 | 0.54 | 6.56 | 6.13 | 28.7 | 0.15 | 0.16 | 1.1 | 0.22 | 1.3 | 1.2 | 0.745 s⁻¹ | 0.20 | 2.41 µM | 1.22 s⁻¹ |
| 211L: single substitution Y211L in SEQ ID NO:2 (protein, Zea mays variant form created by artificial means.) MGPTPTATAAGAAVAAASAAEQAAFRLVGHRNFVRFNPRSDRFQTLAFHHVELWCADAASAAGRFSFALGVPLAARSDLSTGNSAHASLLLRSGSLSLLFTAPYAHGADAATAALPSFSAAAARRFAADHGLAVRAVALRVADAEDAFRASVAAGARPAFGPVDLGRGFRLAEVELYGDVVLRYVSYPDGAAGEPFLPGFEGVASPGAADLGLSRFDHIVGNVPELAPAAAYMAGFTGFHEFAEFTTEDVGTTESGLNSMALANNSENVLLPLNEPVHGTKRRSQIQTFLDHHGGPGVQHIALASDDVLRTLREMRARSAMGGFEFLPPPLSDYYDGVRRCAGDVLTEAQINECQELGVMVDRDDQGVLLQIFTKPVGDRPTFFLEIIQRIGCMEKDEKGQEYQKGGCGGFGKGNFGQLFKSIEDYEKSLEAKQAAAAATAQGS | 0.77 | 0.25 | 1.1 | 0.37 | 0.9 | 0.47 | 4.72 | 4.41 | 25.0 | 0.13 | 0.22 | 1.1 | 0.27 | 0.9 | 1.1 | 0.615 s⁻¹ | 0.17 | 3.2 µM | 1.29 s⁻¹ |
| 387L: single substitution I387L in SEQ ID NO:2 (protein, Zea mays variant form created by artificial means.) MGPTPTATAAGAAVAAASAAEQAAFRLVGHRNFVRFNPRSDRFQTLAFHHVELWCADAASAAGRFSFALGVPLAARSDLSTGNSAHASLLLRSGSLSLLFTAPYAHGADAATAALPSFSAAAARRFAADHGLAVRAVALRVADAEDAFRASVAAGARPAFGPVDLGRGFRLAEVELYGDVVLRYVSYPDGAAGEPFLPGFEGVASPGAADYGLSRFDHIVGNVPELAPAAAYMAGFTGFHEFAEFTTEDVGTTESGLNSMALANNSENVLLPLNEPVHGTKRRSQIQTFLDHHGGPGVQHIALASDDVLRTLREMRARSAMGGFEFLPPPLSDYYDGVRRCAGDVLTEAQINECQELGVMVDRDDQGVLLQIFTKPVGDRPTFFLELIQRIGCMEKDEKGQEYQKGGCGGFGKGNFGQLFKSIEDYEKSLEAKQAAAAATAQGS | 0.75 | 0.26 | 1.6 | 0.46 | 1.3 | 0.56 | 4.58 | 4.28 | 27.0 | 0.14 | 0.15 | 1.0 | 0.21 | 1.3 | 1.1 | 0.555 s⁻¹ | 0.19 | 2.46 µM | 1.24 s⁻¹ |
